Measured values as given in article PMC4108505 (Journal of molecular biology, 2014).
Numbering of substitutions follows the chain as printed. Names may count otherwise.

What was measured:
Experiment in all cases: fluorescence polarisation
SipD^t S148E = molecular target: T1, SipD^t S148E (Salmonella, UniProt Q56026 101-343, S148E)
T1 sequence: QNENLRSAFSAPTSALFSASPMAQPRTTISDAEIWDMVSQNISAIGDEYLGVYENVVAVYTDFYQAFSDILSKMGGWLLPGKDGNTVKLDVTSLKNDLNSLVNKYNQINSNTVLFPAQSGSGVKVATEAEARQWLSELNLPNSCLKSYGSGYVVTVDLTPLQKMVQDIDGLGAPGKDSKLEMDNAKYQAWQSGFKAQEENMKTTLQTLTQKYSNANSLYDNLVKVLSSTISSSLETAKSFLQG

SipD^t V157K = molecular target: T2, SipD^t V157K (Salmonella, UniProt Q56026 101-343, V157K)
T2 sequence: T1 sequence with E48S, V57K

SipD^t S313E = molecular target: T3, SipD^t S313E (Salmonella, UniProt Q56026 101-343, S313E)
T3 sequence: T1 sequence with E48S, S213E

SipD^t D320R = molecular target: T4, SipD^t D320R (Salmonella, UniProt Q56026 101-343, D320R)
T4 sequence: T1 sequence with E48S, D220R

SipD^t V323K = molecular target: T5, SipD^t V323K (Salmonella, UniProt Q56026 101-343, V323K)
T5 sequence: T1 sequence with E48S, V223K

[1] = molecular target: T6, SipD^t (truncated form of SipD lacking the N-terminal alpha-helical hairpin, residues 101-343) (Salmonella, UniProt Q56026 101-343)
T6 sequence: T1 sequence with E48S

B1: PrgI V65A/V67A/L31C labelled with Alexa Fluor 488-C5-maleimide (natural protein)
chain: MATPWSGYLDDVSAKFDTGVDNLQTQVTEACDKLAAKPSDPALLAAYQSKLSEYNLYRNAQSNTAKAFKDIDAAIIQNFR
modifications: Alexa Fluor 488-C5-maleimide on the cysteine of L31C
SipD^t S148E
  Kd: 189 ± 20 µM
SipD^t V157K
  binding result: binds
SipD^t S313E
  binding result: binds
SipD^t D320R
  binding result: binds
SipD^t V323K
  binding result: binds
[1]
  Kd: 108 ± 10 µM
